Measurements taken from the RNAGym collection of RNA variant scans (doi:10.7554/elife.90254).

B1: OR4K15 (parent)
chain: GUUAACGGUCAUAGGCCAUGGAAACUAGGAGCACCAUUUCGCUGCCAGUGAAGAAAUGAACAAAGAAAAUCUGGGCCAGGCAGGCAUCAAAAGAAAUAGUCUUGCGCUCAACCAGAAAGUCUGUAAUCAUUUUAAGGGUA

Variants of: B1
Assay: self-cleavage, relative activity (ratio to wild type); higher = more cleavage; in vitro, sequencing; the parent is a self-cleaving ribozyme

Variant | self-cleavage
GUUAACGGUCAUAGGCCAUGGAACCUAGGAGCACCAUUUCGCUGCCAGUGAAGAAAUGAACAAAGAAAAUCUGGGCCAGGCAGGCAUCAAAAGAAAUAGUCUUGCGCUCAACCAGAAAGUCUGUAGUCAUUUUAAGGGUA | 0
GUUAACGGUCAUAGGCCAUGGAAACUAGGAGCACCAUUUCGCUGCCGGUGAAGAAAUGAACAAAGAAAAUCUGGGCCAGGCAGGCAUCAAAAGAAAUAGUCUUGCGCUCAACCAGAAAGUCUGUAGUCAUUUUAAGGGUA | 1
GUUAACGGUCAUAGGCCAGGGAAACUAGGAGCACCAUUUCGCUGCCAGUGAAGAAAUGAACAAAGAAAAUCUGGGCCAGGCAGGCAUCAAAAGAAAUAGUCUUGCGCUCAACCUGAAAGUCUGUAAUCAUUUUAAGGGUA | 0.1
GUUAACGGUCAUAGGCCACGGAAACUAGGAGCACCAUUUCGCUGCCAGUGAAGAAAUGAACAAAGAAAAUCUGGGCCAGGCAGGCAUCAAAAGAGAUAGUCUUGCGCUCAACCAGAAAGUCUGUAAUCAUUUUAAGGGUA | 1.58
GUUAACGGUCAUAGGCCAUGGAACCUAGGAGCACCAUUUCGCUGCCAGUGAAGAAAUGAACAAAGAAAAUCUGGGCCGGGCAGGCAUCAAAAGAAAUAGUCUUGCGCUCAACCAGAAAGUCUGUAAUCAUUUUAAGGGUA | 0.32
GUUAACGGUCAUAGGCCUUGGAAACUAGGAGCACCAUUUCGCUGCCAGUGAAGAAAUGAACCAAGAAAAUCUGGGCCAGGCAGGCAUCAAAAGAAAUAGUCUUGCGCUCAACCAGAAAGUCUGUAAUCAUUUUAAGGGUA | 0.88
GUUAACGGUCAUAGGCCAUGGAAACUAGGAGCACCACUUCGCUGCCAGUGAAGAAAUGAACAAAGAAAAUCUGGGCCAGGCAGGCAUCAAAAGAAAUGGUCUUGCGCUCAACCAGAAAGUCUGUAAUCAUUUUAAGGGUA | 0.8
GUUAACGGUCAUAGGCCAUGGAAACUAGGAGCACCAUUUCGCUGCCAGUGAAGAAACGAACAAAGAAAAUCUGGGCCAGGCAGGCAUCAAAAGAAAUAGACUUGCGCUCAACCAGAAAGUCUGUAAUCAUUUUAAGGGUA | 0.4
GUUAACGGUCAUAGGCCAUGGAAACUAGGAGCACCAUUUCGCUGCCAGGGAAGAAAUGAACAAAGAAAAUCUGGGCCAGGCAGGCAUCAAAAGAAAUAGUCUUGCGCACAACCAGAAAGUCUGUAAUCAUUUUAAGGGUA | 0.04
GUUAACGGUCAUAGGCCAUGGAAACUAGGAACACCAUUUCGCUGCCGGUGAAGAAAUGAACAAAGAAAAUCUGGGCCAGGCAGGCAUCAAAAGAAAUAGUCUUGCGCUCAACCAGAAAGUCUGUAAUCAUUUUAAGGGUA | 1
GUUAACGGUCAUAGGCCAUGGAAACUAGGAGCACCAUUUCGCUGCCAGUGAAGAAACGAACAAAGAAAAUCUGGGCCAGGCAGGCAUCAAAAGAAAUAGUCUUGCGCACAACCAGAAAGUCUGUAAUCAUUUUAAGGGUA | 0.02
GUUAACGGUCAUAGGCCAUGGUAACUAGGAGCACCAUUUCGCUGCCAGUGAAGAAAUGAACAAAGAAAGUCUGGGCCAGGCAGGCAUCAAAAGAAAUAGUCUUGCGCUCAACCAGAAAGUCUGUAAUCAUUUUAAGGGUA | 1
GUUAACGGUCAUAGGCCAUGGAAACUAGGAGCACCAUUUCGCUGCCAGUGAAGAAAUGAACAAAGAAAAUCUGAGCCAGGCAGGCAUCAAAAGGAAUAGUCUUGCGCUCAACCAGAAAGUCUGUAAUCAUUUUAAGGGUA | 0.13
GUUAACGGUCAUAGGCCAUGGAAACCAGGAGCACCAUUUCGCUGCCAGUGAAGAAAUGAACAAAGAAAAUCCGGGCCAGGCAGGCAUCAAAAGAAAUAGUCUUGCGCUCAACCAGAAAGUCUGUAAUCAUUUUAAGGGUA | 0.07
GUUAACGGUCAUAGGCCAUGGAAACUAGGAGCACCAUAUCGCUGCCAGUGAAGAAAUGAGCAAAGAAAAUCUGGGCCAGGCAGGCAUCAAAAGAAAUAGUCUUGCGCUCAACCAGAAAGUCUGUAAUCAUUUUAAGGGUA | 1.32
GUUAACGGUCAUAGGCCAUGGAAACUAGGAGCACCAUCUCGCUGCCAGUGAAGAAAUGAACAAAGAAAAUCUGGGCCAGGCAGGCAUCAAAAGAAAUAGUCUUGCGCUCAACCAGAAAGUCUGUAAUCUUUUUAAGGGUA | 1.21
GUUAACGGUCAUAGGCCAUGGAAACUAGGAGCACCAUCUCGCUGCCAGUGAAGAGAUGAACAAAGAAAAUCUGGGCCAGGCAGGCAUCAAAAGAAAUAGUCUUGCGCUCAACCAGAAAGUCUGUAAUCAUUUUAAGGGUA | 0.93
GUUAACGGUCAUAGGCCAUGGAAACUAGGAGCACCAUUUCGCUGCCAGUGAAGAAAUGAACAAAGAAAAUCGGGGCCAGGCAGGCGUCAAAAGAAAUAGUCUUGCGCUCAACCAGAAAGUCUGUAAUCAUUUUAAGGGUA | 0.1
GUUAACGGUCAUAGGCCAUGGAGACUAGGAGCACCAAUUCGCUGCCAGUGAAGAAAUGAACAAAGAAAAUCUGGGCCAGGCAGGCAUCAAAAGAAAUAGUCUUGCGCUCAACCAGAAAGUCUGUAAUCAUUUUAAGGGUA | 1.24
GUUAACGGUCAUAGGCCAUGGAAACUAGGAGCACCAUUUCGCUGCCAGUGAAGAAAUGAACAAAGAAAAUCUGAGCCAGGAAGGCAUCAAAAGAAAUAGUCUUGCGCUCAACCAGAAAGUCUGUAAUCAUUUUAAGGGUA | 0.19
GUUAACGGUCAUAGGCCAUGGAAACUAGGAGCACCAUUUCGCUGCCAGUGAAGAAAUGAACAAAGAAAAUCUGGGCCAGGCAGGGAUCAAAAGAAAUAGUCUUGCGCUCAACCAGAAAGUCUGUAGUCAUUUUAAGGGUA | 0.2

Variant | self-cleavage
GUUAACGGUCAUAGGCCAUGGAAACUAGGAGCACCAUUUCGCUGCCAGCGAAGAAAUGAACAAAGAAAAUCUGGGCCAGGCAGGCAUCAAAAGAAAUAGUCUUGCGCUCAACCAGAAAGUCUGUAAACAUUUUAAGGGUA | 2.43
GUUAACGGUCAUAGGCCAUGGAAACUAGGAGCACCAUUUCGCUGCCAGUGGAGAAAUGAACAAAGAAAAUCUGGGCCAGGCAGGCAUCAAAAGAAAUAGUCUUGCGCUCAACCAGAAAGUCUGUAAUCAUUAUAAGGGUA | 1.68
GUUAACGGUCAUAGGCCAUGGAAACUAGGAGCACCAUUUCGGUGCCAGUGAAGAAAUGAACAAAGAAAAUCUGGGCCAGGCAGGCAUCAAAAGAAAUAGUCUUGCGCCCAACCAGAAAGUCUGUAAUCAUUUUAAGGGUA | 0.01
GUUAACGGUCAUAGGCCAUGGAAACUAGGAGCACCAUUUCGCUGCCAGUGAAGAAGUGAACAAAGAAAAUCUGGGCCAGGCAGGCAUCAAAAGAAAUAGUCUUGCGCUCAACCAGAAAGUCUGUAAUCAUUUUAUGGGUA | 0.62
GUUAACGGUCAUAGGCCAUGGAAUCUAGGAGCACCAUUUCGCUGCCAGUGAAGAAAUGAACAAAGAAAAUCUGGGCCAGGCAGGCAUCAAAAGAAAUAGUCUUGCGCUCAACCAGAAAGCCUGUAAUCAUUUUAAGGGUA | 0.8
GUUAACGGUCAUAGGCCAUGGAAACUAGGAGCUCCAUUUCGCUGCCAGUGAAGAAAUGAACAAAGAAAAUCUGGGCCAGGCAGGCAUCAAAAGAAAUAGUCUUGCGCUCAACCAGAACGUCUGUAAUCAUUUUAAGGGUA | 1.06
GUUAACGGUCAUAGGCCAUGGAAACUAGGAGUACCAUUUCGCUGCCAGUGAAGAAAUGAACAAAGAAAAUCUGGGCCAGGCAGGCACCAAAAGAAAUAGUCUUGCGCUCAACCAGAAAGUCUGUAAUCAUUUUAAGGGUA | 1.36
GUUAACGGUCAUAGGCCGUGGAAACUAGGAGCACCAUUUCGCUGCCAGUGAAGAAAUGAACAAAGAAAAUCUGGGCCAGGCAGGCAUCAAAAGAAAUAGUCUUGCGCUCAACCAGAAAGUCUGUAACCAUUUUAAGGGUA | 1.53
GUUAACGGUCAUAGGCCAUGGAAACUAGGAGCACCAUUUCGCUGCCAGUGAAGAAAUGAACAAAGAAAAUCUGGGCCAGGCAGGCAUCAAAAGAAAAAGUCUUGCGCUCAACCAGAGAGUCUGUAAUCAUUUUAAGGGUA | 2.09
GUUAACGGUCAUAGGCCAUGGAAACUAGGAGCACCAUUUCGCUGCCAGUGAAGAAAUGAACAAAGAAAAUCUGGGCCAGGCGGGCAUCAAAAGUAAUAGUCUUGCGCUCAACCAGAAAGUCUGUAAUCAUUUUAAGGGUA | 0.64
GUUAACGGUCAUAGGCCAUGGAAACUAGGAGCACCAUUUCGCUGCCAGUGAAGAAACGAACAAAGAAAAUCCGGGCCAGGCAGGCAUCAAAAGAAAUAGUCUUGCGCUCAACCAGAAAGUCUGUAAUCAUUUUAAGGGUA | 0.04
GUGAACGGUCAUAGGCCAUGGAAACUAGGGGCACCAUUUCGCUGCCAGUGAAGAAAUGAACAAAGAAAAUCUGGGCCAGGCAGGCAUCAAAAGAAAUAGUCUUGCGCUCAACCAGAAAGUCUGUAAUCAUUUUAAGGGUA | 1.12
GUUAACGGUCAUUGGCCAUGGAAACUAGGAGCACCAUUUCGCUGCCAGUGAAGAAAUGAACAAAGAGAAUCUGGGCCAGGCAGGCAUCAAAAGAAAUAGUCUUGCGCUCAACCAGAAAGUCUGUAAUCAUUUUAAGGGUA | 1.14
GUUAACGGUCAUAGGCCAUGGAAACUAGGAGCACCAUUACGCUGCCAGUGAAGAAAUGAACAAAGAAAAUCUGGGCCAGGCAGGCAUCAAAAGAGAUAGUCUUGCGCUCAACCAGAAAGUCUGUAAUCAUUUUAAGGGUA | 2.05
GUUAACGGUCAUAGGCCAUGGAAACUAGGAGCACCAUUUCGCUGCCAGAGAAGAAAUGAACAAAGAAAAUCUGGGCCAGGCAGGCAUCAAAAGAAAUAGUCUUGCGCUCAACCAGAAAGUCUGUAAUCAUGUUAAGGGUA | 1.06
GUUAACGGUCAUAGGCCAUGGAAACUAGGAGCACCAUUUCGCUGCCAGUGAAGAAAUGAACAAAGAAAAUCUGGGCCAGGCAGGCAUCAAAAGUAAUAGUCUUGCGCUCAACCAGAAAGACUGUAAUCAUUUUAAGGGUA | 2.18
GCUAGCGGUCAUAGGCCAUGGAAACUAGGAGCACCAUUUCGCUGCCAGUGAAGAAAUGAACAAAGAAAAUCUGGGCCAGGCAGGCAUCAAAAGAAAUAGUCUUGCGCUCAACCAGAAAGUCUGUAAUCAUUUUAAGGGUA | 0.24
GUUAACGGUCAUAGGCCAUGGAAACUAGGAGCACCAUUUCGCUGCCCGUGAAGAAAUGAACAAAGAAAAUCUGGGCCAAGCAGGCAUCAAAAGAAAUAGUCUUGCGCUCAACCAGAAAGUCUGUAAUCAUUUUAAGGGUA | 0.14
GUUAACGGACAUAGGCCAUGGAAACUAGGAGCACCAUUUCGCUGCCAGUGAAGAAAUGAACAAAGAAAAUCUGGGCCAGGCAGGCAUCAAAAGAAAUAGUCUUGCGCUCAACCAGAAAGUCUGUAAUCAUUUUAGGGGUA | 1.41
GUUAACGGACAUAGGCCAUGGAAACUAGGAGCACCAUUUCGCUGCCAGUGAAGAAAUGAACAAAGAAAAUCUGGGCCAGGCAGGCAUCAAAAGAAAUAGUCUUGCGCUCAACCAGAAAGUCUGUAAUCAUUUUAUGGGUA | 1
